Measurements taken from patent CN117624352A (UNIV XIAMEN, dated 2024).

Experiments:
[1] = molecular target: T1, Tmem176b表达纯化抗原142-196aa xy02b-hFc-6His(Abclonal) (mouse, UniProt Q9R1Q6 142-196); assay: Biacore (SPR); antigen coupled to the chip, 6E8 as analyte at 1.5625-50 nM; mean of 3 runs
T1 construct: range 142-196; also called 体外表达纯化抗原Tmem176b; Tmem176b抗原; not shown: hFc of the xy02b-hFc-6His vector; 6His tag
T1 sequence (looked up): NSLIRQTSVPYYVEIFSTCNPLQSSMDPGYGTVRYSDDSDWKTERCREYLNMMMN

[2] = molecular target: T1, Tmem176b表达纯化抗原142-196aa …; assay: Capture ELISA; antibody coated at 2 μg/mL, antigen titrated from 0.1 μg/ml in 3-fold steps

B1: Tmem176b单克隆抗体6E8 (antibody, V domains shown)
VH: QSVEESGGRLLKPDETLTLTCTVSGFSLSSYAMSWVRQAPGKGLEWIGIISIRGNTYYASWAKGRFTISKTSTTVDLKITSPTTEDTATYFCARNTLYSSGWGGSDLWGQGTLVTVSS
VL: AQVLTQTPSPVSAAVGGTVTINCQASQSVYNNNNLAWYQQKPGQPPKLLIYYASTLASGVSSRFKGSGSGTQFTLTISGVQCDDAATYYCQGEFSCSSADCNAFGGGTEVVVKG
notes: Recombinant rabbit monoclonal antibody; also called α-Tmem176b单抗(6E8); Tmem176b单抗6E8
[1]
  Kd: 0.959 nM
[2]
  EC50: 0.893 ng/mL
